Reference: paper PMC3549490

Molecular target: UNC-45 (C. elegans), full-length recombinant protein (C. elegans)
Experiment: ITC

| Binder | Kd [µM] |
| --- | --- |
| EDASRMEEVD [Hsp90 (DAF-21) C-terminal peptide …] | 14 |
| AGGPTIEEVD [Hsp70 (HSP-1) C-terminal peptide …] | 120 |
